Reference: publication PMC8554075
pKd: −log10 of the molar value.

Biological target: unmutated common ancestor of the AB-3467 clonal lineage, expressed as human IgG1 (human V(D)J (Ig-humanized TRIANNI mouse))
Assay: BLI

Q: “SARS-CoV-2 receptor-binding domain (from UniProt P0DTC2 333-528) (domain or fragment)” was tested. Which pKd did it give?
A: 6.30
